# From paper PMC11711613
# Several values for one entry are separate records, joined by “and”; a condition that tells them apart may be missing. Equal values may be shown once.
# How the values were obtained:
# [1] = biological target: RctB domain IV (RctB^IV, amino acids 532 to 658) (Vibrio cholerae N16961); assay: SEC; analytical SEC, Superdex 200 10/300, 50 mM Hepes, 200 mM NaCl, 2 mM MgCl2, 1 mM TCEP, calibrated with gel filtration standards
# [2] = biological target: RctB, full length (Vibrio cholerae N16961); assay: cryo-EM 2D class averages; RctB at 0.25 mg/ml in 50 mM Hepes, 200 mM NaCl, 2 mM MgCl2, 1 mM TCEP; reference-free 2D classification
# [3] = biological target: RctB, full length (Vibrio cholerae N16961); assay: SEC; analytical SEC, Superdex 200 10/300, 50 mM Hepes, 200 mM NaCl, 2 mM MgCl2, 1 mM TCEP, calibrated with gel filtration standards
Substance,stoichiometry N [1],stoichiometry N [2],stoichiometry N [3]
"RctB domain IV (RctB^IV, amino acids 532 to 658) (domain or fragment)",2,–,–
"RctB, full length (natural protein)",–,2 and 4,2 and 4
